From US8357523B2, “Beta-glucosidase variant enzymes and related polynucleotides” (Codexis, Inc., priority 2009, dated 2013) come the findings set out here.

B1: 80 (protein)
chain: STAIAQEGAAPAAILHPEKWPRPATQRLIDPAVEKRVDALLKQLSVEEKVGQVIQGDIGTITPEDLRKYPLGSILAGGNSGPNGDDRAPPKEWLDLADAFYRVSLEKRPGHTPIPVLFGIDAVHGHGKIGSATIFPHNIALGATRDPELLRRIGEVTAVEMTATGIDWTFAPALSVVRDDRWGRTYEGFSEDPEIVAAYSAAIVEGVQGKFGSKDFMAPGRIVACAKHFLADGGTDQGRDQGDARISEDELIRIHNAGYPPAIDAGVLTVMASFSSWQGIKHHGHKQLLTDVLKGQMGFNGFIVGDWNAHDQVPGCTKFNCPTSLIAGLDMYMAADSWKQLYENTLAQVKDGTIPMARLDDAVRRILRVKVLAGLFEKPAPKDRPGLPGLETLGSPEHRAVGREAVRKSLVLLKNDKGTLPLSPKARVLVAGDGADNIGKQSGGWTISWQGTGNRNDEFPGATSILGGIRDAVADAGGSVEFDVAGQYKTKPDVAIVVFGEEPYAEFQGDVETLEYQPDQKQDLALLKKLKDQGIPVVAVFLSGRPMWVNPELNASDAFVAAWLPGTEGGGVADVLFTDKAGKVQHDFAGKLSYSWPRTAAQTTVNRGDADYNPLFAYGYGLTYKDKSKVGTLPEESGVPAEARQNAGIYFRAGALRLPGRFL
B2: 180 (protein)
chain: STAIAQEGAAPAAILHPEKWPRPATQRLIDPAVEKRVDALLKQLSVEEKVGQVIQGDIGTITPEDLRKYPLGSILAGGDSGPNGDDRAPPKEWLDLADAFYRVSLEKRPGHTPIPVLFGIDAVHGHGKIGSATIFPHNIALGATRSPELLRRIGEVTAVEMAATGIDWTFAPALSVVRDDRWGRTYEGFSEDPEIVAAYSAAIVEGVQGKFGSKDFMAPGRIVACAKHFLADGGTDQGRDQGDARISEDELIRIHNAGYPPAIDAGVLTVMASFSSWQGIKHHGHKQLLTDVLKGQMGFNGFIVGDWNAHDQVPGCTKFNCPTSLIAGLDMYMAADSWKQLYENTLAQVKDGTIPMARLDDAVRRILRVKVLAGLFEKPAPKDRPGLPGLETLGSPEHRAVGREAVRKSLVLLKNDKGTLPLSPKARVLVAGDGADNIGKQSGGWTISWQGTGNRNDEFPGATSILGGIRDAVADAGGSVEFDVAGQYKTKPDVAIVVFGEEPYAEFQGDVETLEYQPDQKQDLALLKKLKDQGIPVVAVFLSGRPMWVNPELNASDAFVAAWLPGTEGGGVADVLFTDKAGKVQHDFAGKLSYSWPRTAAQTTVNRGDADYNPLFAYGYGLTYKDKSKVGTLPEESGVPAEARQNAGIYFRAGTLRLPGRFL
B3: 181 (protein)
chain: STAIAQEGAAPAAILHPEKWPRPATQRLIDPAVEKRVDALLKQLSVEEKVGQVIQGDIGTITPEDLRKYPLGSILAGGNSGPNGDDRAPPKEWLDLADAFYRVSLEKRPGHTPIPVLFGIDAVHGHGKIGSATIFPHNIALGMTRDPELLRRIGEVTAEEMAATGIDWTFAPALSVVRDDRWGRTYEGFSEDPEIVAAYSAAIVEGVQGKYGSKDFMAPGRIVACAKHFLADGGTDQGRDQGDARISEDELIRIHNAGYPPAIDAGVLTVMASFSSWQGIKHHGHKQLLTDVLKGQMGFNGFIVGDWNAHDQVPGCTKFNCPTSLIAGLDMYMAADSWKQLYENTLAQVKDGTIPMARLDDAVRRILRVKVLAGLFEKPAPKDRPGLPGLETLGSPEHRAVGREAVRKSLVLLKNDKGTLPLSPKARVLVAGDGADNIGKQSGGWTISWQGTGNRNDEFPGATSILGGIRDAVADAGGSVEFDVAGQYKTKPDVAIVVFGEEPYAEFQGDVETLEYQPDQKQDLALLKKLKDQGIPVVAVFLSGRPMWVNPELNASDAFVAAWLPGTEGGGVADVLFTDKAGKVQHDFAGKLSYSWPRTAAQTTVNRGDADYNPLFAYGYGLTYKDKSKVGTLPEESGVPAEARQNAGIYFRAGALRLPGRFL

A short description of the data set: High throughput cellobiose assay: fold improvement in cellobiase activity of CelA variants over a control enzyme (Tables 2A-2D, 3, 5, 6, 7). Format: biochemical. The following applies: 3.3 g/l cellobiose, 55° C. and pH 6.0.
For B1, the “Fold improvement over Control Variant No. 5 from Table 2A” value is on record as “+++ (+++ = 6 to 13 fold improvement over control Variant No. 2)”. Then B2, with “+++ (+++ = 6 to 13 fold improvement over control Variant No. 2)”. Under B3 stands “+++ (+++ = 6 to 13 fold improvement over control Variant No. 2)”.
